Experimental data from US20100015650.

T1: BRB1 tyrosine kinase substrate peptide
T1 chain: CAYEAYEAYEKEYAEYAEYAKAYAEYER

B1: EphA4 (protein)
chain: SRRRSKYSKAKQEADEEKHLNQGVRTYVDPFTYEDPNQAVREFAKEIDASCIKIEKVIGVGEFGEVCSGRLKVPGKREICVAIKTLKAGYTDKQRRDFLSEASIMGQFDHPNIIHLEGVVTKCKPVMIITEYMENGSLDAFLRKNDGRFTVIQLVGMLRGIGSGMKYLSDMSYVHRDLAARNILVNSNLVCKVSDFGMSRVLEDDPEAAYTTRGGKIPIRWTAPEAIAYRKFTSASDVWSYGIVMWEVMSYGERPYWDMSNQDVIKAIEEGYRLPPPMDCPIALHQLMLDCWQKERSDRPKFGQIVNMLDKLIRNPNSLKRTGTESSRPNTALLDPSSPEFSAVVSVGDWLQAIKMDRYKDNFTAAGYTTLEAVVHVNQEDLARIGITAITHQNKILSSVQAMRTQMQQMHGRMVPV
B2: CSK (protein)
chain: MSAIQAAWPSGTECIAKYNFHGTAEQDLPFCKGDVLTIVAVTKDPNWYKAKNKVGREGIIPANYVQKREGVKAGTKLSLMPWFHGKITREQAERLLYPPETGLFLVRESTNYPGDYTLCVSCDGKVEHYRIMYHASKLSIDEEVYFENLMQLVEHYTSDADGLCTRLIKPKVMEGTVAAQDEFYRSGWALNMKELKLLQTIGKGEFGDVMLGDYRGNKVAVKCIKNDATAQAFLAEASVMTQLRHSNLVQLLGVIVEEKGGLYIVTEYMAKGSLVDYLRSRGRSVLGGDCLLKFSLDVCEAMEYLEGNNFVHRDLAARNVLVSEDNVAKVSDFGLTKEASSTQDTGKLPVKWTAPEALREKKFSTKSDVWSFGILLWEIYSFGRVPYPRIPLKDVVPRVEKGYKMDAPDGCPPAVYEVMKNCWHLDAAMRPSFLQLREQLEHIKTHELHL

Tests used:
[1] = target: poly-EAY
[2] = target: T1, BRB1 tyrosine kinase substrate peptide
[3] = target: poly-EY

Protein	Average Signal at 665 nm (TR-FRET kinase assay; kinase 2 nM, read 1 h after adding Eu-PT66 antibody) [1]	Average Signal at 665 nm (TR-FRET kinase assay; kinase 2 nM, read 18 h after adding Eu-PT66 antibody) [1]	Average Signal at 665 nm (TR-FRET kinase assay; kinase 2 nM, read 24 h after adding Eu-PT66 antibody) [1]	Average Signal at 665 nm (TR-FRET kinase assay; kinase 2 nM, read 1 h after adding Eu-PT66 antibody) [2]	Average Signal at 665 nm (TR-FRET kinase assay; kinase 2 nM, read 18 h after adding Eu-PT66 antibody) [2]	Average Signal at 665 nm (TR-FRET kinase assay; kinase 2 nM, read 24 h after adding Eu-PT66 antibody) [2]	Signal to Noise ratio with BRB1 Peptide (TR-FRET kinase assay; kinase 0.5 nM) [2]	Average Signal at 665 nm (TR-FRET kinase assay; kinase 2 nM, read 1 h after adding Eu-PT66 antibody) [3]	Average Signal at 665 nm (TR-FRET kinase assay; kinase 2 nM, read 18 h after adding Eu-PT66 antibody) [3]	Average Signal at 665 nm (TR-FRET kinase assay; kinase 2 nM, read 24 h after adding Eu-PT66 antibody) [3]	Signal to Noise Ratio with BRB1 Peptide (TR-FRET kinase assay; kinase 20 nM) [2]
B1	110000	51400	45800	134000	117000	116000	31.5	89000	35000	30100	–
B2	–	–	–	–	–	–	–	–	–	–	27.2
